Earlier results in publication PMC3418248 (2012).

Target: FtsZ C-terminal 17 amino acids (Bacillus subtilis) (UniProt P17865)
Settings: cited from earlier work

EzrA, sequence (O34894 whole entry): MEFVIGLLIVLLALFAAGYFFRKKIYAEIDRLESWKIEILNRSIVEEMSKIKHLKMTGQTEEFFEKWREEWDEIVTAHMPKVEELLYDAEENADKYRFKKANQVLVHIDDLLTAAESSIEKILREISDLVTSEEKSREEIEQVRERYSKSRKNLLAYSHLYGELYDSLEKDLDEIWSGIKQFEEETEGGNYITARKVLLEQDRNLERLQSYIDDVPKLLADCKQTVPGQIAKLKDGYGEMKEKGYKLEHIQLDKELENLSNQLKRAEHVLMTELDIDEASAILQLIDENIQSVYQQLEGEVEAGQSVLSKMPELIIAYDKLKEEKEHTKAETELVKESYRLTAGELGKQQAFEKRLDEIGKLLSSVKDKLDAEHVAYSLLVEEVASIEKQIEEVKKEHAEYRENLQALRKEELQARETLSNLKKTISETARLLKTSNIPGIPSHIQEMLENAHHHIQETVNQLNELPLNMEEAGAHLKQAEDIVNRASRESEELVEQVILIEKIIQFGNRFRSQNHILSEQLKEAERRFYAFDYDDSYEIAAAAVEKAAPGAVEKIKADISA

## EzrA (from UniProt O34894)
  Kd: 102 µM
